Data reported in the supplement of paper PMC9876800.

Tested on: peptide library, one residue held at a place counted from the S/T acceptor
Assay: relative phosphorylation of the sub-library (ratio to the mean residue at this position); Pediculus humanus corporis; higher = residue favoured
Outline: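 Purified recombinant kinases, either human or orthologue constructs, were incubated in 384-well plates with biotinylated degenerate peptide sub-libraries. Each sub-library fixed one residue at one position around a central Ser/Thr. Peptides at 50 μM and 50 μM ATP spiked with γ-32P-ATP were used for 90 min under kinase-specific conditions, and spots on streptavidin membranes were phosphorimaged and quantified by densitometry. Relative sub-library phosphorylation is expressed as a ratio to the mean residue at that position.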

PINK1, construct: aa126-end, sequence (E0W1I1 126-575, looked up): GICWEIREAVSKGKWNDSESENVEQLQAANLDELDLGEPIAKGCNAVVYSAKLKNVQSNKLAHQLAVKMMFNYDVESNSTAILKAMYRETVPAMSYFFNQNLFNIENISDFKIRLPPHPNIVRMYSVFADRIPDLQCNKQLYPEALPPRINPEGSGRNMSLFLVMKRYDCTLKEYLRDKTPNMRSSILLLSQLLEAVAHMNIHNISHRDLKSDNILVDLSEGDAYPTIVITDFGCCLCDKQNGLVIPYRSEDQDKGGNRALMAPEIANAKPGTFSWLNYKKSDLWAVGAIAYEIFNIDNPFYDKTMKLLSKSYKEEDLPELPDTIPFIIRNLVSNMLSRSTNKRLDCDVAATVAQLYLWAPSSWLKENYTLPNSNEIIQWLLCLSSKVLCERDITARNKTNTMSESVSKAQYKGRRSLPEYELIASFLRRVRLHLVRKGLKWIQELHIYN

PINK1, construct: aa126-end (from UniProt E0W1I1)
relative phosphorylation
Conditions	at +1	at +2	at +3	at +4	at -1	at -2	at -3	at -4	at -5
A fixed	0.566	1.09	0.757	0.761	1.01	0.871	0.867	0.921	1.04
D fixed	0.454	0.704	0.585	0.547	0.982	0.416	1.11	1.49	1.67
E fixed	0.292	0.655	0.509	0.54	1.22	0.781	0.81	1.81	1.48
F fixed	0.496	1.06	1.11	0.954	0.612	1.25	1.43	1.01	1.21
G fixed	1.94	0.875	0.873	1.02	0.812	0.416	0.579	0.946	0.806
H fixed	0.954	1.11	1.15	1.04	0.945	0.84	0.964	1.25	1.09
I fixed	0.55	0.712	0.657	0.789	0.604	1.55	0.774	0.696	0.863
K fixed	1.59	1	1.41	1.4	0.952	0.828	0.387	0.596	0.754
L fixed	0.517	0.76	0.676	0.802	1.14	0.907	2.14	0.739	0.889
M fixed	0.626	0.982	0.832	0.902	1.23	2.75	1.57	0.804	0.923
N fixed	2.33	1.02	1.17	0.858	1.52	0.589	0.694	1.18	0.888
P fixed	2.36	1.41	1.06	1.08	0.419	0.316	0.429	0.63	0.878
Q fixed	0.786	1	0.957	0.983	1.72	1.06	0.609	0.831	0.733
R fixed	2.05	1.57	2.21	2.15	1.58	1.02	0.815	0.676	0.75
V fixed	0.474	0.805	0.737	0.692	0.716	0.838	0.441	0.595	0.806
W fixed	0.455	1.03	1.14	1.47	0.772	1.55	1.74	1.48	1.17
Y fixed	0.548	1.2	1.17	1.01	0.775	1.03	1.65	1.35	1.04
pThr fixed	0.442	0.775	0.7	0.556	0.306	0.5	0.537	1.01	1.67
pTyr fixed	0.458	1.66	0.834	0.71	1.09	1.06	3.15	1.66	1.26
